The results in this text go back to patent US20160024487.

In data set [1] the target is T1, Lys(Dnp)-ATNATLFPRIVGG-Lys(Abz).
T1 chain: KATNATLFPRIVGGK

In data set [2] the target is T2, Lys(Dnp)-ATNATIWPRIVGG-Lys(Abz).
T2 chain: KATNATIWPRIVGGK

In data set [3] the target is T3, Lys(Dnp)-ATNATVHPRIVGG-Lys(Abz).
T3 chain: KATNATVHPRIVGGK

Data set [4] addresses T4, Lys(Dnp)-ATNATMIPRIVGG-Lys(Abz).
T4 chain: KATNATMIPRIVGGK

The target in data set [5] is T5, Lys(Dnp)-ATNATWAPRIVGG-Lys(Abz).
T5 chain: KATNATWAPRIVGGK

Data set [6] has as its target T6, Lys(Dnp)-ATNATYKPRIVGG-Lys(Abz).
T6 chain: KATNATYKPRIVGGK

The target of data set [7] is T7, Lys(Dnp)-ATNATPFPRIVGG-Lys(Abz).
T7 chain: KATNATPFPRIVGGK

Data set [8] has as its target T8, Lys(Dnp)-ATNATAVPRIVGG-Lys(Abz).
T8 chain: KATNATAVPRIVGGK

Data set [9] concerns the target T9, Lys(Dnp)-ATNATFFPRIVGG-Lys(Abz).
T9 chain: KATNATFFPRIVGGK

Data set [10] has as its target T10, Lys(Dnp)-ATNATRPPRIVGG-Lys(Abz).
T10 chain: KATNATRPPRIVGGK

The target of data set [11] is T11, Lys(Dnp)-ATNATYTPRIVGG-Lys(Abz).
T11 chain: KATNATYTPRIVGGK

Data set [12] concerns the target T12, Lys(Dnp)-ATNATFWPRIVGG-Lys(Abz).
T12 chain: KATNATFWPRIVGGK

In data set [13] the target is T13, Lys(Dnp)-ATNATFKPRIVGG-Lys(Abz).
T13 chain: KATNATFKPRIVGGK

In data set [14] the target is T14, Lys(Dnp)-ATNATTKPRIVGG-Lys(Abz).
T14 chain: KATNATTKPRIVGGK

Data set [15] addresses T15, Lys(Dnp)-ATNATKEPRIVGG-Lys(Abz).
T15 chain: KATNATKEPRIVGGK

The target in data set [16] is T16, Lys(Dnp)-ATNATNEPRIVGG-Lys(Abz).
T16 chain: KATNATNEPRIVGGK

Data set [17] concerns the target T17, Lys(Dnp)-ATNATPLPRIVGG-Lys(Abz).
T17 chain: KATNATPLPRIVGGK

The target of data set [18] is T18, Lys(Dnp)-ATNATQKPRIVGG-Lys(Abz).
T18 chain: KATNATQKPRIVGGK

In data set [19] the target is T19, Lys(Dnp)-ATNATWLPRIVGG-Lys(Abz).
T19 chain: KATNATWLPRIVGGK

Data set [20] has as its target T20, Lys(Dnp)-ATNATRKPRIVGG-Lys(Abz).
T20 chain: KATNATRKPRIVGGK

The target of data set [21] is T21, Lys(Dnp)-ATNATEIPRIVGG-Lys(Abz).
T21 chain: KATNATEIPRIVGGK

For data set [22], the target named is T22, Lys(Dnp)-ATNATKGPRIVGG-Lys(Abz).
T22 chain: KATNATKGPRIVGGK

Data set [23] concerns the target T23, Lys(Dnp)-ATNATRRPRIVGG-Lys(Abz).
T23 chain: KATNATRRPRIVGGK

In data set [24] the target is T24, Lys(Dnp)-ATNATYLPRIVGG-Lys(Abz).
T24 chain: KATNATYLPRIVGGK

The target of data set [25] is T25, Lys(Dnp)-ATNATRTPRIVGG-Lys(Abz).
T25 chain: KATNATRTPRIVGGK

Data set [26] has as its target T26, Lys(Dnp)-ATNATMWPRIVGG-Lys(Abz).
T26 chain: KATNATMWPRIVGGK

For data set [27], the target named is T27, Lys(Dnp)-ATNATPDPRIVGG-Lys(Abz).
T27 chain: KATNATPDPRIVGGK

The target in data set [28] is T28, Lys(Dnp)-ATNATAQPRIVGG-Lys(Abz).
T28 chain: KATNATAQPRIVGGK

Data set [29] has as its target T29, Lys(Dnp)-ATNATELPRIVGG-Lys(Abz).
T29 chain: KATNATELPRIVGGK

The target in data set [30] is T30, Lys(Dnp)-ATNATHHPRIVGG-Lys(Abz).
T30 chain: KATNATHHPRIVGGK

In data set [31] the target is T31, Lys(Dnp)-ATNATKHPRIVGG-Lys(Abz).
T31 chain: KATNATKHPRIVGGK

The target of data set [32] is T32, Lys(Dnp)-ATNATIDPRIVGG-Lys(Abz).
T32 chain: KATNATIDPRIVGGK

The target in data set [33] is T33, Lys(Dnp)-ATNATNLPRIVGG-Lys(Abz).
T33 chain: KATNATNLPRIVGGK

Data set [34] addresses T34, Lys(Dnp)-ATNATRNPRIVGG-Lys(Abz).
T34 chain: KATNATRNPRIVGGK

In data set [35] the target is T35, Lys(Dnp)-ATNATQIPRIVGG-Lys(Abz).
T35 chain: KATNATQIPRIVGGK

Data set [36] addresses T36, Lys(Dnp)-ATNATWNPRIVGG-Lys(Abz).
T36 chain: KATNATWNPRIVGGK

The target in data set [37] is T37, Lys(Dnp)-ATNATGEPRIVGG-Lys(Abz).
T37 chain: KATNATGEPRIVGGK

The target of data set [38] is T38, Lys(Dnp)-ATNATQHPRIVGG-Lys(Abz).
T38 chain: KATNATQHPRIVGGK

Data set [39] deals with T39, Lys(Dnp)-ATNATHVPRIVGG-Lys(Abz).
T39 chain: KATNATHVPRIVGGK

Data set [40] deals with T40, Lys(Dnp)-ATNATPRPRIVGG-Lys(Abz).
T40 chain: KATNATPRPRIVGGK

Data set [41] has as its target T41, Lys(Dnp)-ATNATANPRIVGG-Lys(Abz).
T41 chain: KATNATANPRIVGGK

B1: Human plasma purified Factor Xa (protein)
chain 1: ANSFLEEMKKGHLERECMEETCSYEEAREVFEDSDKTNEFWNKYKDGDQCETSPCQNQGKCKDGLGEYTCTCLEGFEGKNCELFTRKLCSLDNGDCDQFCHEEQNSVVCSCARGYTLADNGKACIPTGPYPCGKQTLER
chain 2: IVGGQECKDGECPWQALLINEENEGFCGGTILSEFYILTAAHCLYQAKRFKVRVGDRNTEQEEGGEAVHEVEVVIKHNRFTKETYDFDIAVLRLKTPITFRMNVAPACLPERDWAESTLMTQKTGIVSGFGRTHEKGRQSTRLKMLEVPYVDRNSCKLSSSFIITQNMFCAGYDTKQEDACQGDSGGPHVTRFKDTYFVTGIVSWGEGCARKGKYGIYTKVTAFLKWIDRSMKTRGLPKAKSHAPEVITSSPLK
For the protein B1, the FXa kcat/KM in [1] amounted to 99 M⁻¹ s⁻¹; in data set [2], 1500 M⁻¹ s⁻¹; in data set [3] it was 67 M⁻¹ s⁻¹; in data set [4], 220 M⁻¹ s⁻¹; in data set [5], 42 M⁻¹ s⁻¹; in [6], 25 M⁻¹ s⁻¹. In addition, the FXa kcat/KM in data set [7] turned out to be 69 M⁻¹ s⁻¹; in data set [8], 42 M⁻¹ s⁻¹; in data set [9], 48 M⁻¹ s⁻¹; in data set [10], 7 M⁻¹ s⁻¹; in data set [11], 29 M⁻¹ s⁻¹; in data set [12] it was 370 M⁻¹ s⁻¹. This protein had an FXa kcat/KM in data set [13] of 55 M⁻¹ s⁻¹.

B2: Human plasma purified Factor Xa (Molecular Innovations, Inc) (protein)
chain 1: B1 chain 1
chain 2: B1 chain 2
Turning to B2, the FXa kcat/KM was 14 M⁻¹ s⁻¹ in data set [14]; 62 M⁻¹ s⁻¹ in data set [15]; 20 M⁻¹ s⁻¹ in [16]; 330 M⁻¹ s⁻¹ in data set [17]; 49 M⁻¹ s⁻¹ in [18]; 460 M⁻¹ s⁻¹ in data set [19]. Further, the FXa kcat/KM amounted to 640 M⁻¹ s⁻¹ in data set [20]; 55 M⁻¹ s⁻¹ in [21]; 33 M⁻¹ s⁻¹ in data set [22]; 900 M⁻¹ s⁻¹ in [23]; 340 M⁻¹ s⁻¹ in [24]; 1500 M⁻¹ s⁻¹ in data set [25]. The FXa kcat/KM came out at 630 M⁻¹ s⁻¹ in data set [26]; 790 M⁻¹ s⁻¹ in data set [27]; 460 M⁻¹ s⁻¹ in data set [28]; 100 M⁻¹ s⁻¹ in data set [29]; 25 M⁻¹ s⁻¹ in data set [30]; 56 M⁻¹ s⁻¹ in [31]. For the same protein, the FXa kcat/KM turned out to be 1300 M⁻¹ s⁻¹ in data set [32]; 110 M⁻¹ s⁻¹ in data set [33]; 1700 M⁻¹ s⁻¹ in data set [34]; 630 M⁻¹ s⁻¹ in [35]; 22 M⁻¹ s⁻¹ in data set [36]; 87 M⁻¹ s⁻¹ in [37]. Also, the FXa kcat/KM was determined as 550 M⁻¹ s⁻¹ in data set [38], 39 M⁻¹ s⁻¹ in data set [39], 500 M⁻¹ s⁻¹ in data set [40] and 78 M⁻¹ s⁻¹ in [41].
